We go through one molecule from patent US20240084003A1 (SIMCERE ZAIMING PHARMACEUTICAL, published 2024).

Like-named read-outs stand apart in the source and are kept apart here.

For assay [1], the target named is T1, monkey CD22 on HEK293T-monkey CD22 cells (monkey).
T1 construct: full-length entry expressed on stably transfected HEK293T cells
T1 chain: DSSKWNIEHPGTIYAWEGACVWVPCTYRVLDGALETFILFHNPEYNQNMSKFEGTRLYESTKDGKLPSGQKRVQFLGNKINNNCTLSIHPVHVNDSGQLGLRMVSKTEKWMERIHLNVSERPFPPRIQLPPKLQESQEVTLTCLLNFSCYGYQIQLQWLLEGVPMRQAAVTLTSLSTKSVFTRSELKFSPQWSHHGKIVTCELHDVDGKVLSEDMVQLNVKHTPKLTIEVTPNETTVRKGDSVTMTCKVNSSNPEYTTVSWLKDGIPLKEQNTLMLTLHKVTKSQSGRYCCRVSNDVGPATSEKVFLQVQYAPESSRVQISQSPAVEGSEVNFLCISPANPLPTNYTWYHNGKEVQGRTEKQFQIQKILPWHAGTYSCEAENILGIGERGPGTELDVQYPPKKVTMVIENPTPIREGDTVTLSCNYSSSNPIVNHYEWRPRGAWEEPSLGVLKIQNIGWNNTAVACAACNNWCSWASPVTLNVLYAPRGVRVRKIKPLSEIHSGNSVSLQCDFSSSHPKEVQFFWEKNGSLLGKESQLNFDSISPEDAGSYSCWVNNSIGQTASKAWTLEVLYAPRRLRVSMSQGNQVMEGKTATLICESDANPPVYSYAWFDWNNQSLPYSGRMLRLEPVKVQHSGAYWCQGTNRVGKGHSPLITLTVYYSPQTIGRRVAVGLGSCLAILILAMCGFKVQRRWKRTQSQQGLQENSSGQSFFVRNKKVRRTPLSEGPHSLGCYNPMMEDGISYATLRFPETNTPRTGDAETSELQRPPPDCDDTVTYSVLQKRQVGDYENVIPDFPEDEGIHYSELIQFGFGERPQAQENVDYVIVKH
Briefly: FACS, HEK293T-monkey CD22 cells. The procedure:
(§1) For suspension cell Raji, the medium supernatant was directly centrifuged and discarded, and the cell pellet was washed 2 times with PBS. After counting the cells in the previous step, the cell pellet was resuspended with [PBS+2% (w/w) BSA] blocking solution to 2×10⁶ cells/ml, and added to a 96-well FACS reaction plate at 50 μl/well, and then the chimeric antibody test sample was added at 50 μl/well, and incubated on ice for 2 hours. The mixture was centrifuged and washed 3 times with PBS buffer, Alexa Flour 488-labeled secondary antibody (purchased from Invitrogen, catalog number: A-11013) was added at 50 μl/well, and incubated on ice for 1 hour. The obtained mixture was centrifuged and washed 5 times with PBS, and FACS (FACS Canto™, purchased from BD Company) was used for detection and result analysis. Data analysis was performed by software (CellQuest) to obtain the mean fluorescence density (MFI)of the cells. And then software (GraphPad Prism8) was used for analysis, data fitting, and EC50 value calculation. […] The same method was used to detect the binding of the chimeric antibodies to endogenous CD22-negative cell MoLT4 cells (purchased from ATCC, CRL-1582) and CHO-K1 cells.
(§2) HEK293T-monkey CD22 cells were subjected to FACS detection and data analysis according to the method in Example 5.2.
A general note: Flow cytometry measures light scatter and fluorescence of single cells or particles in a stream.

For assay [2], the target named is T1, monkey CD22 on HEK293T-monkey CD22 cells. Briefly: FACS, HEK293T-monkey CD22 cells. The method, then:
as §1, §2

Assay [3] has the same target. Briefly: FACS, HEK293T-monkey CD22 cells, EC50 column. The procedure: as §1, §2
In assay [4] the target is T2, monkey CD22 protein (ACROBiosystems, catalog number SI2-R52Ha) (monkey, UniProt F6W485 20-688).
T2 construct: commercial protein; also called monkey CD22-ECD; monkey CD22-ECD-His
T2 sequence: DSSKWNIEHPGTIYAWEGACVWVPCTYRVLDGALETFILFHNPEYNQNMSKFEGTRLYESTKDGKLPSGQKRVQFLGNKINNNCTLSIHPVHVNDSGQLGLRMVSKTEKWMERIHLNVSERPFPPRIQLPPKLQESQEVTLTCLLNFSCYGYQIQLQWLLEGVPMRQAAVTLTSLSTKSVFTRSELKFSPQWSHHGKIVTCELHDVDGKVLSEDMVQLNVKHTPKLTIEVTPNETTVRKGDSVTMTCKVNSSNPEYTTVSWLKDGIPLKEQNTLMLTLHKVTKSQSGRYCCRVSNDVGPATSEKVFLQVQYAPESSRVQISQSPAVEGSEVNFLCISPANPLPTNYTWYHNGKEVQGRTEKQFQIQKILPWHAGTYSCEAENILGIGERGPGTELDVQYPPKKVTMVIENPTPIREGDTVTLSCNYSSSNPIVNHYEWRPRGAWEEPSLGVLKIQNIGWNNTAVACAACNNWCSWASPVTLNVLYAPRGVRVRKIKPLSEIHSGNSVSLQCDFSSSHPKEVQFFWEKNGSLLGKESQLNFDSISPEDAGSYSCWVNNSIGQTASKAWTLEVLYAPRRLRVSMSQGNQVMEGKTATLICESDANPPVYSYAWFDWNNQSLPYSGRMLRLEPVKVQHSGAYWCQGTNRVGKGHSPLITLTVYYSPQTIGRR
Briefly: ELISA, coated monkey CD22 protein, antibody 10 nM. The procedure:
(§3) In order to detect the binding activity of CD22 human-murine chimeric antibodies to CD22 protein, the purified human CD22-ECD-His protein obtained in Example 2 was diluted with PBS to a final concentration of 2 μg/mL, and then added to 96-well ELISA plate at 100 μl/well. The plate was sealed with plastic film and incubated overnight at 4° C., the plate was washed 2 times with PBS the next day, and then a blocking solution [PBS+2% (w/w) BSA] was added for blocking at room temperature for 2 hours. […] After incubation at 37° C. for 2 hours, the plate was washed 3 times with PBS. HRP (horseradish peroxidase)-labeled secondary antibody (purchased from Sigma, catalog number: A0170) was added, and incubated at 37° C. for 2 hours, and the plate was washed 5 times with PBS. TMB substrate was added at 50 μl/well, and incubated at room temperature for 30 minutes, then a stop solution (1.0 N HCl) was added at 50 μl/well.
(§4) In order to detect the species cross-binding activity of the chimeric antibodies, an ELISA plate was coated with commercial murine CD22 protein (ACROBiosystems, catalog number: SI2-M52Ha) and monkey CD22 protein (ACROBiosystems, catalog number: SI2-R52Ha), respectively, and the ELISA detection was performed according to the method in Example 5.1.
Background: In an ELISA, binding on a coated surface is turned into a signal by an enzyme label.

Assay [5] concerns the target T2, monkey CD22 protein (ACROBiosystems, …). As to the kind of experiment: ELISA, coated monkey CD22 protein, antibody 0.1 nM. The procedure:
as §3, §4

Assay [6] has the same target. Briefly: ELISA, coated monkey CD22 protein, antibody 100 nM. The procedure: as §3, §4
Assay [7] shares this target. As to the kind of experiment: ELISA, coated monkey CD22 protein, antibody 0.01 nM. The method, then: as §3, §4
Assay [8] has the same target. As to the kind of experiment: ELISA, coated monkey CD22 protein, antibody 0.001 nM. The method, then:
as §3, §4

Assay [9] shares this target. As to the kind of experiment: ELISA, coated monkey CD22 protein, antibody 0.0001 nM. The procedure: as §3, §4
Assay [10] shares this target. Briefly: ELISA, coated monkey CD22 protein, antibody 0.00001 nM. The method, then: as §3, §4

B1: m971-hIgG1 (antibody, V domains shown)
VH: QVQLQQSGPGLVKPSQTLSLTCAISGDSVSSNSAAWNWIRQSPSRGLEWLGRTYYRSKWYNDYAVSVKSRITINPDTSKNQFSLQLNSVTPEDTAVYYCAREVTGDLEDAFDIWGQGTMVTVSS
VL: DIQMTQSPSSLSASVGDRVTITCRASQTIWSYLNWYQQRPGKAPNLLIYAASSLQSGVPSRFSGRGSGTDFTLTISSLQAEDFATYYCQQSYSIPQTFGQGTKLEIKR
notes: control anti-CD22 antibody; variable regions from US 8,591,889 on human IgG1 constant regions
Take B1: the “Maximum mean fluorescence intensity” value in [1] is 49 MFI; in assay [2], 104 MFI. In addition, in assay [3], the binding result is recorded as “no binding”. Moreover, the OD450 in assay [4] turned out to be 0.09 OD450; in [5] it was 0.07 OD450; in [6], 0.12 OD450; in assay [7] it was 0.07 OD450; in assay [8], 0.06 OD450; in [9], 0.07 OD450. The molecule further showed an OD450 in assay [10] of 0.07 OD450.
